Reference: the supplement of paper PMC9732359
± gives the uncertainty stated by the source.

Assay: protein stability index of a GFP-peptide fusion (yeast GPS) (PSI 1-4); higher = more stable; sorted into four equal gates, so the index is relative within each strain
How it was run: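 Plasmids in a pooled yeast library fused tiled 17-residue yeast protein peptides downstream of GFP and also expressed Cherry. Mid-log cultures grown without leucine were sorted into four equal gates by GFP/Cherry fluorescence ratio. Each gate's plasmids were PCR-amplified and Illumina-sequenced, and reads were matched to strains by barcodes. The protein stability index is derived by multiplying each gate's read frequency by its gate number and summing the results.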

Sequence	protein stability index (doa10∆)	protein stability index (pdr5∆)	protein stability index (san1∆)	protein stability index (ubr1∆)
TTTATPHANPITHAHSL [PGD1]	2.84 ± 0.043	3.01 ± 0.041	2.88 ± 0.035	3.003 ± 0.029
LITTYSKLSKNISFYKL [SIN4]	2.18 ± 0.16	2.47 ± 0.12	2.24 ± 0.11	2.69 ± 0.072
PEENATEGPSDKKLNLN [SNF12]		3.59 ± 0.17	3.27 ± 0.099	3.29 ± 0.1
SNLSPDLKFKRHKNKHI [DSN1]	2.71 ± 0.1	2.58 ± 0.15	2.28 ± 0.077	2.17 ± 0.13
TEKLKISPESVFGTLGE [SMC3]	1.99 ± 0.087	2.34 ± 0.066	2.09 ± 0.095	1.99 ± 0.032
EQDILDLIAEQVVTDYN [SSN2]	3 ± 0.17	3.44 ± 0.12	3.08 ± 0.18	2.47 ± 0.14
TISEKEQDILDLIAEQV [SSN2]	3.08 ± 0.14	3.25 ± 0.15	3.05 ± 0.12	2.97 ± 0.13
IIKYPVAFDNINTHIET [SNF2]	2.45 ± 0.14	2.71 ± 0.11	2 ± 0.16	1.85 ± 0.067
LSNLHESNKRYRFFKKI [SNF12]	2.79 ± 0.12	2.68 ± 0.081	2.9 ± 0.08	2.24 ± 0.065
FLKHNGEEDAVDLLLEI [RPN1]	3.23 ± 0.082	3.16 ± 0.12	3.24 ± 0.072	3.3 ± 0.05
DPFFAQSEDLSHAVEFF [YML103C/NUP188]	3.23 ± 0.056	3.17 ± 0.057	3.31 ± 0.045	3.14 ± 0.042
EDNNDAVNSIMALKFVS [ECM29]	3.15 ± 0.1	3.3 ± 0.077	3.03 ± 0.079	3.32 ± 0.07
LDNLKLKELRIDNSPQA [GRR1]	2.65 ± 0.054	2.72 ± 0.07	2.69 ± 0.07	2.94 ± 0.042
EAVDDVFQAKMMDMLKQ [RPN11]	2.42 ± 0.053	2.58 ± 0.058	2.02 ± 0.061	2.79 ± 0.065
LKYPELSIKNSFIINFI [NUT1]	1.99 ± 0.062	2 ± 0.045	2.13 ± 0.076	1.94 ± 0.036
NNNNTIDESMPDTAIDS [GRR1]	2.78 ± 0.061	3.02 ± 0.052	2.81 ± 0.061	3 ± 0.044
ALGQDTEKMEEQLDLLS [MED11]	3.03 ± 0.099	3.09 ± 0.082	2.99 ± 0.073	3.31 ± 0.064
FQNLELETEQLSSELDS [SMC2]	2.08 ± 0.12	2.58 ± 0.11	1.55 ± 0.14	2.69 ± 0.13
ITFHPKIRARSITLQGD [SMC2]	2.48 ± 0.049	2.56 ± 0.045	2.69 ± 0.051	2.48 ± 0.043
AFSFGAKPDEKKNDEVS [YJL041W/NSP1]	3.22 ± 0.16	3.19 ± 0.15		3.26 ± 0.17
ALERYDEAEGRFEVINN [SMC1]		1.12 ± 0.17		
PFYGSYTETDPAKVAEE [SRP54]	3.19 ± 0.1	3.01 ± 0.14	3.08 ± 0.055	2.82 ± 0.099
RYEEFADKVKLGRVRNH [RPC40]	2.93 ± 0.064	2.99 ± 0.074	3 ± 0.068	2.96 ± 0.056
KNLERLRGEYNDLQSET [SMC4]	3.33 ± 0.2	3.4 ± 0.083	3.25 ± 0.067	2.9 ± 0.06
NPDDDYGFKQEIFDVTS [FAS1]	3.38 ± 0.25	3.45 ± 0.11	3.17 ± 0.1	3.31 ± 0.055
DFRTRYIDIRTNNVLRK [MTW1]	2.45 ± 0.087	2.86 ± 0.21	2.43 ± 0.27	2.66 ± 0.14
DHQHILRKLKKMNNKPE [RPC53]	1.87 ± 0.053	1.7 ± 0.06	1.78 ± 0.1	1.51 ± 0.044

Sequence	protein stability index (doa10∆)	protein stability index (pdr5∆)	protein stability index (san1∆)	protein stability index (ubr1∆)
DVFDTLATYCPRVQGFY [GRR1]	2.65 ± 0.075	2.26 ± 0.054	2.36 ± 0.078	2.6 ± 0.055
APEIPEDLYYLIKKAVS [RPS13]	2.94 ± 0.081	2.92 ± 0.096	3.07 ± 0.079	2.69 ± 0.13
KYLSDIMELPGVYSDDE [SRP68]	3.14 ± 0.25	3.08 ± 0.17	3.59 ± 0.17	3.36 ± 0.11
ETLNDTIERSLIEEEVE [YCS4]	3.42 ± 0.14	3.43 ± 0.082	3.31 ± 0.056	3.33 ± 0.097
FSYFFESFESYHNLTTH [RPN6]	2.61 ± 0.089	2.65 ± 0.082	2.85 ± 0.084	2.78 ± 0.066
SILSFVDKELLEPGCSV [RPT2]	2.75 ± 0.077	2.86 ± 0.071	2.3 ± 0.078	3.01 ± 0.066
KDSNKDVVVEGLRRARY [RPL10]	3.26 ± 0.097	3.34 ± 0.071	3.38 ± 0.072	3.38 ± 0.058
AMFEICLKRGWGHPTRM [BRR2]			2.21 ± 0.14	2.96 ± 0.18
IKKKKKKSKNGTISKTG [SRP14]	3.16 ± 0.19	3.17 ± 0.15	3.11 ± 0.1	3.54 ± 0.11
ILKEEFPKIDSLAQNDC [RPN5]	3.19 ± 0.15	3.24 ± 0.091	3.22 ± 0.056	3.38 ± 0.065
FPGDSFPVDPTTPVKLG [RRP40]	2.45 ± 0.058	2.58 ± 0.053	2.65 ± 0.045	2.62 ± 0.048
FLEKEKQLTLLRSKLFQ [SMC4]	2.46 ± 0.094	1.99 ± 0.067	1.86 ± 0.12	2.56 ± 0.043
LPLTEHKSPNLSLMLES [SRB4]	2.43 ± 0.066	3.18 ± 0.06	2.39 ± 0.11	2.75 ± 0.06
DGYQLFHAEPSGTFYRY [PUP2]	2.14 ± 0.11	1.6 ± 0.095	2.64 ± 0.062	1.5 ± 0.076
VLVDEIKSQYYSRISKL [YIL149C/MLP2]	2.41 ± 0.054	2.46 ± 0.045	2.3 ± 0.058	2.29 ± 0.034
KELAELKVQKLSRPSLP [RPL35A]	2.56 ± 0.045	2.92 ± 0.052	2.5 ± 0.061	2.74 ± 0.048
SVPLMINAKNIAFASNY [RRP43]	1.57 ± 0.06	1.53 ± 0.051	1.27 ± 0.14	1.41 ± 0.052
SAVVGPNGSGKSNVIDS [SMC4]	3.13 ± 0.049	2.87 ± 0.043	3.06 ± 0.06	2.84 ± 0.033
MSVDIDKKASMIISGSR [ASC1]	2 ± 0.24	1.95 ± 0.12	1.71 ± 0.23	1.99 ± 0.074
QKKILSIRLKVPPTIAQ [RPL8A]	1.53 ± 0.037	1.66 ± 0.037	1.5 ± 0.06	1.69 ± 0.029
LALSSNISRDFQSYIVS [COR1]	2.03 ± 0.073	2.71 ± 0.084	2.09 ± 0.1	1.88 ± 0.047
RVLEIQTSLVRMFEKNV [SKI6]	3.35 ± 0.094	3.07 ± 0.065	2.51 ± 0.078	3.12 ± 0.047
LDTRKELWRKEQKLQTV [SMC3]	1.79 ± 0.069	2.58 ± 0.081	2.83 ± 0.16	2.99 ± 0.058
WRILKEDYAIVTKGGTV [PRP28]	3.47 ± 0.27	3.2 ± 0.29	3.26 ± 0.11	3.41 ± 0.17
ASSSAKLIEKKSAYANT [SMC2]	2.82 ± 0.1	2.55 ± 0.055	2.73 ± 0.079	2.79 ± 0.042
KSLGGGAALKDIEIVRV [FAS2]	2.27 ± 0.26	3.39 ± 0.15	3.17 ± 0.088	
